Measured values from IntAct's records for PubMed 31515488.

B1: Kelch-like protein 3 (Homo sapiens), Q9UH77 (parent)
chain: MEGESVKLSSQTLIQAGDDEKNQRTITVNPAHMGKAFKVMNELRSKQLLCDVMIVAEDVEIEAHRVVLAACSPYFCAMFTGDMSESKAKKIEIKDVDGQTLSKLIDYIYTAEIEVTEENVQVLLPAASLLQLMDVRQNCCDFLQSQLHPTNCLGIRAFADVHTCTDLLQQANAYAEQHFPEVMLGEEFLSLSLDQVCSLISSDKLTVSSEEKVFEAVISWINYEKETRLEHMAKLMEHVRLPLLPRDYLVQTVEEEALIKNNNTCKDFLIEAMKYHLLPLDQRLLIKNPRTKPRTPVSLPKVMIVVGGQAPKAIRSVECYDFEEDRWDQIAELPSRRCRAGVVFMAGHVYAVGGFNGSLRVRTVDVYDGVKDQWTSIASMQERRSTLGAAVLNDLLYAVGGFDGSTGLASVEAYSYKTNEWFFVAPMNTRRSSVGVGVVEGKLYAVGGYDGASRQCLSTVEQYNPATNEWIYVADMSTRRSGAGVGVLSGQLYATGGHDGPLVRKSVEVYDPGTNTWKQVADMNMCRRNAGVCAVNGLLYVVGGDDGSCNLASVEYYNPVTDKWTLLPTNMSTGRSYAGVAVIHKSL
B2: UPF0462 protein C4orf33 (Homo sapiens), Q8N1A6 (parent)
chain: MDFKIEHTWDGFPVKHEPVFIRLNPGDRGVMMDISAPFFRDPPAPLGEPGKPFNELWDYEVVEAFFLNDITEQYLEVELCPHGQHLVLLLSGRRNVWKQELPLSFRMSRGETKWEGKAYLPWSYFPPNVTKFNSFAIHGSKDKRSYEALYPVPQHELQQGQKPDFHCLEYFKSFNFNTLLGEEWKQPESDLWLIEKCDI
partner: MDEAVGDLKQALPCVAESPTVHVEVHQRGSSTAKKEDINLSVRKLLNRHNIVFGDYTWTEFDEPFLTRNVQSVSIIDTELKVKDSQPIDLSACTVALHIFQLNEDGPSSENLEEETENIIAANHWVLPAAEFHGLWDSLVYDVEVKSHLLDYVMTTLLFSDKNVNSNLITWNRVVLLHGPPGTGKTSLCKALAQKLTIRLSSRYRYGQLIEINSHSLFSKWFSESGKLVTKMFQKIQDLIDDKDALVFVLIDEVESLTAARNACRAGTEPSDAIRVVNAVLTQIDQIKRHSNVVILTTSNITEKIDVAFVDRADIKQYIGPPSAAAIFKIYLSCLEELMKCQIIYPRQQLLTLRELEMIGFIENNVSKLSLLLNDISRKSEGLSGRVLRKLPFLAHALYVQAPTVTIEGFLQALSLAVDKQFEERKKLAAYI
B3: Complex I assembly factor TIMMDC1, mitochondrial (Homo sapiens), Q9NPL8 (parent)
chain: MEVPPPAPRSFLCRALCLFPRVFAAEAVTADSEVLEERQKRLPYVPEPYYPESGWDRLRELFGKDEQQRISKDLANICKTAATAGIIGWVYGGIPAFIHAKQQYIEQSQAEIYHNRFDAVQSAHRAATRGFIRYGWRWGWRTAVFVTIFNTVNTSLNVYRNKDALSHFVIAGAVTGSLFRINVGLRGLVAGGIIGALLGTPVGGLLMAFQKYSGETVQERKQKDRKALHELKLEEWKGRLQVTEHLPEKIESSLQEDEPENDAKKIEALLNLPRNPSVIDKQDKD
partner: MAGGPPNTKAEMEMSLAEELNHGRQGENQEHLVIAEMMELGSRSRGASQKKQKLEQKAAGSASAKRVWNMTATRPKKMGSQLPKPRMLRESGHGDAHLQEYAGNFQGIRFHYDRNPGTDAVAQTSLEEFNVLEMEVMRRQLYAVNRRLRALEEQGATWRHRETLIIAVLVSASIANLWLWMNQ
B4: 2'-5'-oligoadenylate synthase 2 (Homo sapiens), P29728 (parent)
chain: MGNGESQLSSVPAQKLGWFIQEYLKPYEECQTLIDEMVNTICDVLQEPEQFPLVQGVAIGGSYGRKTVLRGNSDGTLVLFFSDLKQFQDQKRSQRDILDKTGDKLKFCLFTKWLKNNFEIQKSLDGFTIQVFTKNQRISFEVLAAFNALSLNDNPSPWIYRELKRSLDKTNASPGEFAVCFTELQQKFFDNRPGKLKDLILLIKHWHQQCQKKIKDLPSLSPYALELLTVYAWEQGCRKDNFDIAEGVRTVLELIKCQEKLCIYWMVNYNFEDETIRNILLHQLQSARPVILDPVDPTNNVSGDKICWQWLKKEAQTWLTSPNLDNELPAPSWNVLPAPLFTTPGHLLDKFIKEFLQPNKCFLEQIDSAVNIIRTFLKENCFRQSTAKIQIVRGGSTAKGTALKTGSDADLVVFHNSLKSYTSQKNERHKIVKEIHEQLKAFWREKEEELEVSFEPPKWKAPRVLSFSLKSKVLNESVSFDVLPAFNALGQLSSGSTPSPEVYAGLIDLYKSSDLPGGEFSTCFTVLQRNFIRSRPTKLKDLIRLVKHWYKECERKLKPKGSLPPKYALELLTIYAWEQGSGVPDFDTAEGFRTVLELVTQYQQLCIFWKVNYNFEDETVRKFLLSQLQKTRPVILDPAEPTGDVGGGDRWCWHLLAKEAKEWLSSPCFKDGTGNPIPPWKVPTMQTPGSCGARIHPIVNEMFSSRSHRILNNNSKRNF
B5: Protein LDOC1 (Homo sapiens), O95751 (parent)
chain: MVDELVLLLHALLMRHRALSIENSQLMEQLRLLVCERASLLRQVRPPSCPVPFPETFNGESSRLPEFIVQTASYMLVNENRFCNDAMKVAFLISLLTGEAEEWVVPYIEMDSPILGDYRAFLDEMKQCFGWDDDEDDDDEEEEDDY
partner: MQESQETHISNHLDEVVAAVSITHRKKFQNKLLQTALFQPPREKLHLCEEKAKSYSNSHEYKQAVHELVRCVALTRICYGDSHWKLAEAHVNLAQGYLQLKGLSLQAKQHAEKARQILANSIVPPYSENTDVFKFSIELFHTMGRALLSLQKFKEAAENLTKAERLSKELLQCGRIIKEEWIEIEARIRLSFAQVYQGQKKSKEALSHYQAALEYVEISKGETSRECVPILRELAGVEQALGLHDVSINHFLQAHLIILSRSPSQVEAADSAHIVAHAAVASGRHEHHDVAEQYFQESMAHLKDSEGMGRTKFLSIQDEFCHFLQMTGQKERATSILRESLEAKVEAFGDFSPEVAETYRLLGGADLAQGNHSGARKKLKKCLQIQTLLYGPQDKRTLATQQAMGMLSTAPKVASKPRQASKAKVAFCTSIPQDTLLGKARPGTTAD
B6: U3 small nucleolar RNA-associated protein 14 homolog C (Homo sapiens), Q5TAP6 (parent)
chain: MNVNQVAENLALSHQEELVDLPKNYPLSENEDEGDSDGERKHQKLLEAIISLDGKNRRKLAERSEASLKVSEFSVSSEGSGEKLGLADLLEPVKTSSSLATVKKQLNRVKSKKVVELPLNKEKIEQIHREVAFSKTSQVLSKWDPIILKNQQAEQLVFPLGKEQPAIAPIEHALSGWKARTPLEQEIFNLLHKNKQPVTDPLLTPMEKASLQAMSLEEAKMHRAELQRARALQSYYEAKARKEKKIKSKKYHKVVKKGKAKKALKEFEQLQKVNPTVALEEMEKIENARMMERMSLKHQNSGKWAKSKAIMAKYDLEARQAMQEQLAKNKELTQKLQVASESEEEEGGTEVEELLVPHVANEVQMNVDGPNPWMFRSCTSDTKEAATQEDPEQVPELAAHEVSASEAEERPVAEEEILLREFEERQSLRKRSELNQDAEPASSQETKDSSSQEVLSELRALSQKLKEKHQSRKQKASSEGTVPQVQREEPAPEEAEPLLLQRSERVQTLEELEELGKEDCFQNKELPRPVLEGQQSERTPNNRPDAPKEKKEKEQLINLQNFLTTQSPSVRSLAVPTIIEELEDEEERDQRQMIKEAFAGDDVIRDFLKEKREAVEASKPKDVDLTLPGWGEWGGVGLKPSAKKRRQFLIKAPEGPPRKDKNLPNVIISEKRNIHAAAHQVQVLPYPFTHHRQFERTIQTPIGSTWNTQRAFQKLTTPKVVTKPGHIIKPIKAEDVGYQSSSRSDLPVIQRNPKRITTRHNKEEKL
partner: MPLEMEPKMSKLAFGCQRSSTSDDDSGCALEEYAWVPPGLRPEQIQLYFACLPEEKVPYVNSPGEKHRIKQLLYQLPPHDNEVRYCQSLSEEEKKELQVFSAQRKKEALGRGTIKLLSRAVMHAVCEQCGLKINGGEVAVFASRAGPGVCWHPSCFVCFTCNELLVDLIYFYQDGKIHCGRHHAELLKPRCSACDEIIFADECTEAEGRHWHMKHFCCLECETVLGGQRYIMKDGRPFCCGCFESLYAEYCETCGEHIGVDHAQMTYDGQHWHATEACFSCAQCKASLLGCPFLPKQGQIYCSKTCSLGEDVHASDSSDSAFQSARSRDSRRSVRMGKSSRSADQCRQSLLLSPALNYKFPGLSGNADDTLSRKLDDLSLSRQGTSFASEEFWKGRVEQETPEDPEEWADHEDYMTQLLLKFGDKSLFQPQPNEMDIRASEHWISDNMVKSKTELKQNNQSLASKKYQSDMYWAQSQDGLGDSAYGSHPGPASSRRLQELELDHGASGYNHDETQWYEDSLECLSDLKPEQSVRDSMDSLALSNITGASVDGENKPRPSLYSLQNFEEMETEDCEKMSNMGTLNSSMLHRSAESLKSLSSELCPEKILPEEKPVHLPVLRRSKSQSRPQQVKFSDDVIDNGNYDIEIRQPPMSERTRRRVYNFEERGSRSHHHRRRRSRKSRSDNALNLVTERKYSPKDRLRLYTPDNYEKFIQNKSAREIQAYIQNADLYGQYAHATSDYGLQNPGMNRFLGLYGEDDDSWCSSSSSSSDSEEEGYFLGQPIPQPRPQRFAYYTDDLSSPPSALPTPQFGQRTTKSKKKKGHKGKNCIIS
B7: Protein DDI1 homolog 1 (Homo sapiens), Q8WTU0 (parent)
chain: MLITVYCVRRDLSEVTFSLQVSPDFELRNFKVLCEAESRVPVEEIQIIHMERLLIEDHCSLGSYGLKDGDIVVLLQKDNVGPRAPGRAPNQPRVDFSGIAVPGTSSSRPQHPGQQQQRTPAAQRSQGLASGEKVAGLQGLGSPALIRSMLLSNPHDLSLLKERNPPLAEALLSGSLETFSQVLMEQQREKALREQERLRLYTADPLDREAQAKIEEEIRQQNIEENMNIAIEEAPESFGQVTMLYINCKVNGHPLKAFVDSGAQMTIMSQACAERCNIMRLVDRRWAGVAKGVGTQRIIGRVHLAQIQIEGDFLQCSFSILEDQPMDMLLGLDMLRRHQCSIDLKKNVLVIGTTGTQTYFLPEGELPLCSRMVSGQDESSDKEITHSVMDSGRKEH
partner: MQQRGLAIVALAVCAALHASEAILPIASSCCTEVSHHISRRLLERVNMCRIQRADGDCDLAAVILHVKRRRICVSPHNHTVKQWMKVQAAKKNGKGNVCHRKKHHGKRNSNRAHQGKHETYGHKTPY

Variants of: B1
Conditions: with cul3_human CUL3, Q13618
With C164F the “effect of a mutation on the interaction” value was “disrupting interaction strength”. In the case of R228G, the “effect of a mutation on the interaction” value is reported as “disrupting interaction strength”.

Variants of: B2
Conditions: with pch2_human TRIP13, Q15645
H166R was tested, and the “effect of a mutation on the interaction” value was “with no effect”.

Variants of: B3
Conditions: with fate1_human FATE1, Q969F0
In the case of N76D, the “effect of a mutation on the interaction” value is reported as “with no effect”. A164G was tested, and the “effect of a mutation on the interaction” value was “with no effect”. In the case of P247S, the “effect of a mutation on the interaction” value is reported as “with no effect”.

Variants of: B4
Conditions: with clk3_human CLK3, P49761
Chain of clk3_human CLK3, P49761 (P49761 whole entry, looked up): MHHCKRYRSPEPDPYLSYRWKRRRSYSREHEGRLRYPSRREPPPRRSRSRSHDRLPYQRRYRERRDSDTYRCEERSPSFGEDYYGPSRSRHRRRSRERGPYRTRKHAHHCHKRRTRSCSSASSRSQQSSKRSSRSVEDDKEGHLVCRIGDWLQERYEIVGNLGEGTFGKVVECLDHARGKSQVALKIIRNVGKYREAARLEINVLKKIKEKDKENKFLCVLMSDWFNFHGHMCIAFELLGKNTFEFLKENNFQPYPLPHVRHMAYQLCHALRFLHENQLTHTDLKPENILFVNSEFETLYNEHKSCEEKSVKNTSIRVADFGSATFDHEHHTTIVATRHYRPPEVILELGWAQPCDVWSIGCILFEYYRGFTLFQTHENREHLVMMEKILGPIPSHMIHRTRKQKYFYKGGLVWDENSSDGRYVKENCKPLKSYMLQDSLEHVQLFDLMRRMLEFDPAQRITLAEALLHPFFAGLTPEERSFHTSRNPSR
For V620M, the “effect of a mutation on the interaction” value was “with no effect”. In the case of R535Q, the “effect of a mutation on the interaction” value is reported as “disrupting interaction strength”.

Variants of: B5
Conditions: with ttc23_human TTC23, Q5W5X9
L12H was tested, and the “effect of a mutation on the interaction” value was “disrupting interaction strength”.

Variants of: B6
Conditions: with pric1_human PRICKLE1, Q96MT3
In the case of T101A, the “effect of a mutation on the interaction” value is reported as “disrupting interaction strength”.

Variants of: B7
Conditions: with ccl28_human CCL28, Q9NRJ3
With N228T the “effect of a mutation on the interaction” value was “with no effect”.
